Bridge positions count the residues as written; N and C are the ends. Square brackets hold non-standard residues; d marks the D form. Side chains are listed from the residue outwards. * marks the point of attachment. Biotin = O=C1N[C@H]2[C@H](CS[C@H]2CCCCC(=O)*)N1; pGlu = O=C1CC[C@@H](C(=O)O)N1; Nle = CCCC[C@H](N)C(=O)O; PEG = not defined here

One assay concerns the target T1, hCCR2b (human, UniProt P41597 1-374).
T1 chain: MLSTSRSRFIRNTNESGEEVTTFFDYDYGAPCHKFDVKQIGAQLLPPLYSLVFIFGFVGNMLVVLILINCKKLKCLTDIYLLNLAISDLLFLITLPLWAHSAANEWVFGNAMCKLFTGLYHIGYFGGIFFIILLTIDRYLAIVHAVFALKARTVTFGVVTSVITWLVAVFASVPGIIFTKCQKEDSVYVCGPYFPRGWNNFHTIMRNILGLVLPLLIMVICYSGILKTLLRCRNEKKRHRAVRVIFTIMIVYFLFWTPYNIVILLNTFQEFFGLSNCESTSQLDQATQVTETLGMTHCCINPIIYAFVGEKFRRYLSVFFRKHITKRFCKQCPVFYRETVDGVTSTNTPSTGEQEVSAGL
The assay is described as follows: cell-based or functional assay.

Assay [1] addresses T2, chemokine (C-C motif) receptor 7 (CCR7) (human, UniProt P32248 25-378).
T2 sequence (looked up): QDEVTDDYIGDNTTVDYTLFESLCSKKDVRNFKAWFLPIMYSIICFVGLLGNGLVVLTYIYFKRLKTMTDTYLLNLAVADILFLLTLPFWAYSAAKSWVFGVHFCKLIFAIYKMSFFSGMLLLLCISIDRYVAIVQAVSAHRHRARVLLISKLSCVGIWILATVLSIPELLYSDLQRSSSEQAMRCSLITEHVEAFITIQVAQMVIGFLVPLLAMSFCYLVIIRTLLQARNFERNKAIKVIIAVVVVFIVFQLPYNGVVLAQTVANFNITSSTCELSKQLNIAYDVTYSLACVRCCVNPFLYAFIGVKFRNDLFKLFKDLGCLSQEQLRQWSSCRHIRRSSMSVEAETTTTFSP
The assay is described as follows: cell-based or functional assay.

In assay [2] the target is T3, chemokine (C-C motif) receptor 9 (CCR9) (human, UniProt P51686 1-369).
T3 construct: whole, on cells; also called hCCR9; TECK receptor
T3 sequence (looked up): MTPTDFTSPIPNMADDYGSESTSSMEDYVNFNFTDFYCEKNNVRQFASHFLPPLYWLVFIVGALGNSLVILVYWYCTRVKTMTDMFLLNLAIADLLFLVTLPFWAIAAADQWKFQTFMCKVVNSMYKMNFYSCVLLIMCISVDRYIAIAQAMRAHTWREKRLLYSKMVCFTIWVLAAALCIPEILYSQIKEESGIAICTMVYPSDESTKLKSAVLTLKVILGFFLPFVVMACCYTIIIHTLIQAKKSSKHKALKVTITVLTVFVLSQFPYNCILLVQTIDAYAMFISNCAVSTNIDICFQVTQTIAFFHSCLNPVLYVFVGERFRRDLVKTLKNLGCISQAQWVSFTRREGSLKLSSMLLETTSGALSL
Nature of the assay: flow cytometry; labelled chemokine on fixed blood leukocytes. A general note: In flow cytometry, cells or beads pass a laser one at a time.

For assay [3], the target named is T4, chemokine (C-C motif) receptor 5 (CCR5) (human, UniProt P51681 1-352). The assay is described as follows: cell-based or functional assay.
T4 sequence (P51681 whole entry): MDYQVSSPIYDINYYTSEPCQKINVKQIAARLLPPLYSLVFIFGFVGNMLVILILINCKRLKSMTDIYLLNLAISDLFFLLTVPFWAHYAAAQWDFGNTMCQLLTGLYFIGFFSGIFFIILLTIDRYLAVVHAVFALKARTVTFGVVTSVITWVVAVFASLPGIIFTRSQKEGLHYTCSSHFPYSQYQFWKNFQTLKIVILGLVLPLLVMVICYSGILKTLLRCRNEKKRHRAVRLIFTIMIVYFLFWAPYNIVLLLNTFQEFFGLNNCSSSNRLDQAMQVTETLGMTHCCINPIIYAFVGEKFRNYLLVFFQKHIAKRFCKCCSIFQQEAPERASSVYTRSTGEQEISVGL
The target of assay [4] is T5, chemokine (C-C motif) receptor 1 (CCR1) (human, UniProt P32246 1-355).
T5 construct: whole, on cells
T5 sequence (looked up): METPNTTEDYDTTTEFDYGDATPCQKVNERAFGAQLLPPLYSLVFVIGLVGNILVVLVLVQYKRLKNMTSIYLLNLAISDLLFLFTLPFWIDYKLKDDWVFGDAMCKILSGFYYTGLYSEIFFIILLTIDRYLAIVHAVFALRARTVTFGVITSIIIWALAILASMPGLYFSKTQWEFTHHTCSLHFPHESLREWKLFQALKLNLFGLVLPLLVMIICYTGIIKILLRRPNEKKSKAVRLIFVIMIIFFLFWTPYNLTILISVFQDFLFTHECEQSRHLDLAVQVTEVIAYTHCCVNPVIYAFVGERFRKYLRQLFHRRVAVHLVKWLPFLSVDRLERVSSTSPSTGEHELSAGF
The assay is described as follows: blood passed through chemokine-coupled column; flow cytometry before and after.

Assay [5] addresses T4, chemokine (C-C motif) receptor 5 (CCR5). The description is as above.
In assay [6] the target is T6, chemokine (C-C motif) receptor 4 (CCR4) (human, UniProt P51679 1-360).
T6 sequence (looked up): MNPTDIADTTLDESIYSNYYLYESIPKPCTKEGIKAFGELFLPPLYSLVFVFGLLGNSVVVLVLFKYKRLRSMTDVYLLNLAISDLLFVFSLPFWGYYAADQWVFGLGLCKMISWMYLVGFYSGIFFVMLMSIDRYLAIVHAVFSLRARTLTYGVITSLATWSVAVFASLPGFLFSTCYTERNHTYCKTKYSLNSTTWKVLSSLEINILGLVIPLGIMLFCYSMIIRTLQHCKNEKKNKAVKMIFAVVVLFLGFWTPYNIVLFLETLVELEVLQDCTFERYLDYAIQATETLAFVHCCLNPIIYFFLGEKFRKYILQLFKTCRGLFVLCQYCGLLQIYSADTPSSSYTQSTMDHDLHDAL
Nature of the assay: cell-based or functional assay.

Assay [7] concerns the target T7, chemokine (C-C motif) receptor 3 (CCR3) (human, UniProt P51677 1-355).
T7 construct: whole, on cells; also called hCCR3
T7 sequence (looked up): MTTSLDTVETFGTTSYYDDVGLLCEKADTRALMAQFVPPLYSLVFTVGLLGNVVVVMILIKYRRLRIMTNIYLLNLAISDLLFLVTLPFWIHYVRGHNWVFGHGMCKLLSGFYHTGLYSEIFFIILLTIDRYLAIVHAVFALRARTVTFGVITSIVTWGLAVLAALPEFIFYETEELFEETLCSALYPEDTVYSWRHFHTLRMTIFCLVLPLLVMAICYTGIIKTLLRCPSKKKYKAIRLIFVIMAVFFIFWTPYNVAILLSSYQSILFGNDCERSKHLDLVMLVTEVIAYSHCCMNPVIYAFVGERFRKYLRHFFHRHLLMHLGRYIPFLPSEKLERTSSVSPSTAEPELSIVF
Nature of the assay: flow cytometry; eotaxin binding compared with anti-CCR3 staining of neutrophils/eosinophils.

For assay [8], the target named is T3, chemokine (C-C motif) receptor 9 (CCR9). The assay is described as follows: cell-based or functional assay.

B1: recombinant native MCP-2 (ligand, UniProt P80075 24-99, looked up)
chain: QPDSVSIPITCCFNVINRKIPIQRLESYTRITNIQCPKEAVIFKTKRGKEVCADPKERWVRDSMKHLDQIFQNLKP
As for B1, the “EC50 (partial agonist, Aequorin assay)” value with hCCR2b was 23.5 nM.

B2: biotinMIP-3b (CCL19): MIP-3b derivatised at Lys(78) with Biotin (ligand)
chain: GTNDAEDCCLSVTQKPIPGYIVRNFHYLLIKDGCRVPAVVFTTLRGRQLCAPPDQPWVERIIQRLQRTSAKMKRRSSX
modifications: X78 = K(Biotin), an additional C-terminal lysine; C-terminal amide
In the case of B2, the “EC50 (agonist activity, Aequorin assay)” value in [1] was 11 nM.

B3: Biotinylated CCL25 (Almac Sciences) (ligand, UniProt O15444 24-97, looked up)
chain: QGVFEDCCLAYHYPIGWAVLRRAWTYRIQEVSGSCNLPAAIFYLPKRHRKVCGNPKSREVQRAMKLLDARNKVF
modifications: biotinylated (site not stated); for the flow cytometry tests also Alexa647 Fluor labeled
notes: also called biotinylated and Alexa647 Fluor labeled CCL25; CCL25-coated sepharose beads
Take B3: in assay [2], the “percent of CD4+ lymphocytes bound (Crohn's patient)” value is ~90%, the “percent of CD8+ lymphocytes bound (Crohn's patient)” value was ~80% and the “percent of monocytes bound (Crohn's patient)” value is ~90%.

B4: biotinRANTES (CCL5): RANTES derivatised at Lys(67) with Biotin (ligand)
chain: SPYSSDTTPCCFAYIARPLPRAHIKEYFYTSGKCSNPAVVFVTRKNRQVCANPEKKWVREYINSLEK(Biotin)S-OH
modifications: disulfide 10-34, 11-50
notes: also called bRANTES; biotinylated RANTES
In the case of B4, the “EC50 (agonist activity, Aequorin assay)” value in assay [3] is 0.5 nM. In addition, the “percent reduction of chemokine receptor-expressing cells (CCR1, 3 or 5, not told apart)” value in [4] and in assay [5] was ~20% throughout.

B5: biotinMDC (CCL22): MDC derivatised at Lys(66) with PEG-Biotin (ligand)
chain: GPYGANMEDSVCCRDYVRYRLPLRVVKHFYWTSDSCPRPGVVLLTFRDKEICADPRVPWVKMILNK([PEG-Biotin])LSQ-NH2
modifications: disulfide 12-36, 13-52; reading uncertain
In the case of B5, the “EC50 (agonist activity, Aequorin assay)” value in assay [6] came out at 4.5 nM.

B6: biotinylated and Alexa647 Fluor labeled eotaxin (Almac Sciences) (ligand)
chain: not shown
modifications: biotinylated and Alexa647 Fluor labeled (sites not given)
Consider B6, for which, in assay [7], the binding result is “binds”.

B7: biotinTECK (Met to Nleu substitution): TECK derivatised at the epsilon-amino side chain of Lys72 with PEG-Biotin (ligand)
chain: [pGlu]GVFEDCCLAYHYPIGWAVLRRAWTYRIQEVSGSCNLPAAIFYLPKRHRKVCGNPKSREVQRA[Nle]KLLDARNK([PEG-Biotin])VF-OH
modifications: disulfide 7-35, 8-52; reading uncertain
Regarding B7, in [8], the “EC50 (agonist activity, Aequorin assay)” value came out at 63.6 nM.

The values are drawn from patent publication US20140175018A1 (published 2014).
